For one substance, stoichiometry N results are on record in PMC5680780.

This assay deals with recombinant Clonorchis sinensis pyruvate kinase (Clonorchis sinensis). The assay is described as follows: native gel or EMSA + SEC; purified rCsPK on 8% native PAGE against marker proteins; gel filtration on a Sepharose 12 10/300 GL column (AKTA FPLC), 0.8 ml/min, 50 mM Tris-HCl, 100 mM KCl, pH 7.5; apparent Mr about 290 kDa against a subunit of about 58 kDa. (In general: Mobility shift assays separate free from complexed probe on a gel.)

As for “recombinant Clonorchis sinensis pyruvate kinase (enzyme)”, the stoichiometry N was found to be 5.

A word on the stoichiometry N: it is the number of molecules, sites or subunits per partner or assembly.
